# According to the nanobody polyreactivity screen of Harvey et al. (2022):
# Assay: yeast display, Sf9 membrane polyspecificity reagent, FACS + sequencing; frameworks hold sequencing errors
# Outline: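 Genes from sorted yeast were amplified by colony PCR, read by MiSeq 2 × 250 sequencing and filtered on CDR length. These cells carried a synthetic nanobody library in Saccharomyces cerevisiae BJ5465 and were sorted by FACS into low and high (top ~1%) gates on anti-HA and streptavidin fluorescence. Polyreactivity is labelled according to the gate of origin.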
row,Sequence,polyreactivity (PSR sort gate)
1,QVQLVESGGGLVQAGGSLRLNCSAYGSTFFDYVMGWYRQAPGKERDLVAAITRGGSSNYADSVKGRFTISRDNAKNTVYLQMNRLKPEDTAVYYCNAKRDKGFYWWYNYWGQGNQVTVSS,high polyreactivity
2,QVQLVESGGGLVQAGGSLRLSCAASGSIFNRYAMGWYRQEPGKERELVAAISRSGGRTYYADSVKGRFTISRDNAKNTVYLQMNSLKPEDTAVYYCAAQSYLHYGYWGQGTQVTVSS,high polyreactivity
3,QVQLVESGGGLVQAGGSLRLSCAASGRTLYFNAMGWYRQAAGKERELVASITNGGRTNYADSVKGRFTISRDNAKNTVYLQMNSLKPEDTAVYYCAKRTLCSRGVNYYWGQGTQVTVSS,high polyreactivity
4,QVQLVESGGGLVQAGGSLRLSCAASGLTFHYYDMGWYRQAPGKERELVAAISTGGGTYYADSVKGRFTISRDNAKNTVYLQMNSLKPEDTAVYYCAAETQHSYFVFSYYWGQGTQVTVSS,high polyreactivity
5,QVQLVESGGGLVQAGGSLRLSCAASGSIFAGYAMGWYRQAPGKERELVAAITSSGGSTYYADSVKGRFTISRDNAKNTVYLQMTSLKPEDTAVYYCAKDKLILYRVGSDYWGQGTQVTVSS,low polyreactivity
6,QVQLVESGGGLVQAGGSLRVSCAASGFTFDQYAMGWYRQAPGKERELVAAISWSGASTYYADSVKGRFTISRDNAKNTDDLQMNSLKPEDTAVYYCAVSRRRIDYDYWGQGTQVTVSS,high polyreactivity
7,QVQLVESGGGLVQAGGSLRLSCAASGSTFYGYAMGWYRPAPGKERELVAAITIGGRTYYADSVKGRFTISRDNAKNTVYLQMNSLKPEDTAVYYCAAAILRTVPELGSRRTYYYWGQGTQVTVSS,high polyreactivity
8,QVQLVESGGGLVQAGGSLRLTCAASGRIFGYYAKGWYSQAPGKERELGATITFGGGSTCYADSVKGRFTISRDNAKKTVYLQMNSLKPEDTAVYYCAADSGYLGIYGDEYSWGQGTQVTVSS,low polyreactivity
9,QVQRVESGGGLVQAGGSLRLSCAASGSIFYVYVMGWYRLAPGKERELVAGISYRGGSTYYADSVKGRFTISRDNAKNTVYLQMNSLKPEDTAVYYCNAGVWTYWHIEMDYWGQGTQVTVSS,low polyreactivity
10,QVQLVESGGGLVQAGGSLRLSCAASGFTFGRYAMGWYRQAPGKERELVAAITWSGGSTYYADSVKGRFTISRDNAKNTVYLQMNSLKPEDTAVYYCNRLSNNREYDYWGQGTQVTVSS,high polyreactivity
11,QVQLVESGGGLVQAGGSLRLSCAASGLTFYQYAMGWYRQAPGKERELVAGITSGGSTKYADSVKGRFTISRDNAKNTVYLQMNSLKPEDTAVYYCAARFYAFRKGYYYWGQGTQVTVSS,high polyreactivity
12,QVHLVESGGGLVQAGGSLRLSCAASGYTFQWYDRGWYRQAPGKERELVASISWRGGSTYYADSVKGRFTISRDNAKNTVYLQMNSLKPEDTAVYYCAASLWPDYEYVYWGQGTQVTVSS,low polyreactivity
13,QVQLVESGGGLVQAGGSLRLSCAATGSILVYYAMGWSRQAPGKERELVAAISSGGSTNYADSVKGRFTISRDNAKNTVYLQMNSLKPEDTAVYYCDKESGWVGAIHYDYWGQGTQVTVSS,low polyreactivity
14,QVQLVESGGGLVQAGGSLRLSCAASGGTFPYNAMGWYRQAPGTERELVAVITSGDGTYYADSVKGRFTNSRDNAKNTVYLQMNSLKPEDTAVDYCAAVIFWDVPYDYWGQGTQVTVSS,low polyreactivity
15,QVQLVESGVGLVQPGGSLRLIRAAYGRILRDYDMGWYSTAPRKERELVAAINWSDGSTYYADSVKGRFTISRDNAKYTVYLQMNCQKPVDTAVYYCAAEPYVFGLSSKRFWYNYWGQGTEVTVSS,low polyreactivity
16,QVQLVESGGGLVQAGGSLRLSCAASGSIFLYNAMGWYRPAPGKERELVAAISKSGGSTYYADSVKGRFTISRDNAKNTVYLQMNSLKPEDTAVYYCAAGYGRRIRYGSEYDYWGQGTQVTVSS,low polyreactivity
17,QVQLVESCGGLVQAGGSLRLISAASGRTFGHNTMGWYRQAPGKEREYVAAIRWTAGSTYYADSVKGRFTISRDNAKNTVYLQMNSLKPEDTAVYYCAAYYVERRSYRVDRGTTLGYWGQGTQVTVSS,high polyreactivity
18,QVQLVESGGGLVQAGGSLRLSCAASGSIFFSYAMGWYRPAPGKERELVAAISSGGSTYYADSVKGRFTISRDNAKNTVYLPMNSLKPEDTAVFYCAARGYRLVPVDFYYWGQGTQVTVSS,low polyreactivity
19,QVQLVESGGGLVQAGGSLRLSCAASGFTFRAYAMGWYRQAPGKERELVAGITRSGGSTHYADSVKGRFTISRDNAKNTVYLQMNSLKPEDTAVYYCNARYPYRGKRKPPDYWGQGTQVTVSS,high polyreactivity
20,QVQLVESGGGLVQAGGSLRLSCAASGRTFVYNAMGWYSQAPGKEREMVAAISFGGGNTYYADSVKGRFTISRDNAKNTVYLQMNSLIPEDTAVYYCAKAYIGYWGASWYYAYDYWGQGTQVTVSS,low polyreactivity
21,QVQLVESGGGLVQAGGSLRLSCAASGSIFGYYTMGWYRQAPGKERELVARITRGGSTYYADSVKGRFTISRDNAKNTVYLQMNSLYPEDTSVYYCNAEIWTEGGYWGQGSQVTVSS,low polyreactivity
22,QVQIVESCGGLVQAGGSLRLSCAASGITFDVNTMGWYRQAPGKEREMVAAITRDVTTNYADSVKGPFTISRDNAKNTVYLQMNSLKPEDTAVYYCAADGYGQYSQVTDHPYKYNYWRQGTQVTVSS,low polyreactivity

row,Sequence,polyreactivity (PSR sort gate)
1,QVQLVESGGGLVQAGGSLRLSCAASGNIFTGYMGWYRQAPRKERELVAAISRSGGRTHYADSVKGRFTISRDNAKNTVYLQMNSLKPEDTAVYYCNADVRRYTAFTKYPYAFNYWGQGTQVTVSS,high polyreactivity
2,QVQLVESGGGLVQAGGSLRLSCAASGLTFYGYGMGWYRQAPGKERELVASITSGGNTYYADSVKGRFTISRDNAKNTVYLQMNSLKPEDTAVYYCAVTAIALYYSSGYYWGQGTQVTVSS,low polyreactivity
3,QVHLVESGGGLVQAGGSLRLSCAASGSTFGYYTMGWYRQAPGKERELVAAISGSGDSTYYADSVKGRFTISRDNAKNTVYLQMNSLKPEDTAVYYCAKRYYKRYNYWGQGTQVTVSS,high polyreactivity
4,QVQLVESGGGFVQAGGSLRLSCAASGSTFRYYAMGWYRQAPGTEREFVAAISWSGSSTYYADSVKGRFTISRDNAKNTVYLQMNSLKPEDTAVYYCAARYRYYGYDYWGQGTQVTVSS,high polyreactivity
5,QVQLVESGGGLGQAGGSLRLSCAASGIIFQYYAMGWYRPAPGKERELVAVISSSGTNTYYADSVKGRFTISRDNAKNTVYLQMNSLKPEDTAVYYCNKVYRWFTRFDYWGQGTQVTVSS,high polyreactivity
6,QVQLVESGGGLVQAGGSLRLSCAASGRIFGPYAMGWYRQAPRKERELVASISYSGGSTYYADSVKGRFTISRDNAKNTVYLQMNSLKPEDTAVYYCAKGGYWRGYNYWGQGTQVTVSS,low polyreactivity
7,QVQLVESGGGLVQAGGSLRLSCAASGLIFAKYAMGGYRQAPGKERELVAAISYSGGSTFYADSVKGRFTISRDNAKNTVYLQMNSLKPEDTAVYYCAARDSRVGYYWFVRKEYYYWGQGTQVTVSS,high polyreactivity
8,QVQLVESGGGLVQAGGSLRLSCAASGIIFSYNTMGWYRPAPGKERELVAAISRTGGRTYYADSVKGRFTNSRDNAKITVYLQMNSLKPEDTAVYYCAAEQQYASMGYDYWGLGTQVTVSS,high polyreactivity
9,QVQLEESGGGLVQAGGSLRLTCAGSGRIFGIYAMGWYRQAPGKERQLVAAIRDSGSRTYYADSVKGRFTISRDNAKNTVYLQMNRLTPEDTAVYYCAARTYTYPYFGGYQYTYNYWGQGTQVTVSS,low polyreactivity
10,HVQLVESGGGLVQAGGSLRLSCAASGRTLGSYAIGWYRQAPGKARELVAAISGGSTNYADSVKGRFTISRDNAKNTVYLQMNRLKPEDTAVYYCAADPYGYLYDSWGQGTQVTVSS,low polyreactivity
11,QVQLVESGGGLVQAGGSLRLSCAASGFIFNGNAMGWYIQAPGKERELVVAISKSGGRTYYADSVKGRFTISRDNAKYTVYLQMNSLKPEDTAVYDCARRTYTRMYWGQGTQVTVSS,high polyreactivity
12,QVQLVESGGGLVQAGGSLRLSCAASGITFKYTAMGWYRQAPGKERELVAAISRRGGRTYYADSVKGRFTISRDNAKNTVYLQMNSLKPEDTAVYYCNVETWSVGGREYDYWGQGTQVTVSS,high polyreactivity
13,QVQLVESGGGLVQAGGSLRLSCAASGSTFDYYDMGWYRPAPGKERELVAAISSGGDSTYYADSVKGRFTISRDNAKNTVYLQFNSLKPEDSAVYYCAAPDESYSVWRLDGLDYWGQGTQVTVSS,high polyreactivity
14,QVQLVESGGGLVQAGGSLRLTCAASGRIFSRYAMGWYRQAPGKERELVASITRGGSTYADSVKGRFTISRDNAKNTVYLQMNSLKPEDTAVYYCNATYFTRYRQYDYWGQGTQVTVSS,low polyreactivity
15,QVQLVESGGGLVQAGGSLRLSCAASGSTLRRNAMGWYRQAPGKERELVAAISGTGGSTYYADSVKGRFTISRDNAKNTVYLQMYSLKPEDTAVYYCAATGWYYDYDYWGQGTQVTVSS,low polyreactivity
16,QVQLVESGGGLVQAGGSLRLSCAASGFTFGRNAMGWYRQAPGKERELVAAISSSGGTTYYADSVKGRFTISRDNAKNTVYLQMNSLKPEDTAVYSCAARRWYQSRRGGFDYWGQGTQVTVSS,high polyreactivity
17,QVQLVESGGGLVQAGGSLRLSCAASGSICAFYGMRWYRQAPGKERELVAAITRSGGSTYYADSVKGRFTISRDNAKNTVYLQMNSLKAEDTAVSYCAKRPHHGSTKYNYWGQGTQVTVSS,low polyreactivity
18,QVQLVESGGGLVQAGGSLRLSCAASGYISNANAMGCYRQAPGKERELVAAITWSGGSTYADSVKGRFTITRDNAKNTVYLQMNSLKPEDTAVYYCAVGPYRVAKYNYWGQGTQVTVSS,low polyreactivity
19,QVQLVESGGGLVQAGGSLRLSCAASGSIFGYYTMGWYRQAPGKERELVATISRSGGSTYYADSVKGRFTISRDNAKNTVYLQMNSLKPEDTAVYYCAARSWGGYDSRGYWGQGTQVTVSS,high polyreactivity
20,QVQLVESGGGLVQAGGSLRLSCAASGRTLHAYTMGWYRQAPGSERELVAAITRGGGNTYYADSVKGRFTISRDNAKNTVYLQLNSLKPEDTAVYYCNAAVSGYLSYEYDYWGQGTQVTVSS,low polyreactivity
21,QVQLVESGGGLVQAGGSLRLSCAASGSIFKWYAMGWYRQAPGKERELVAAITRGGSTNYADSVKGRFTISRDNAKNTVYLQMNSLKPEDTAVYYCNAVYTYRSGFGYWGQGTQVTVSS,low polyreactivity
